Test results taken from IntAct's records for PubMed 23850456.

B1: Gremlin-2 (Mus musculus), O88273 (parent)
chain: MFWKLSLTLLLVAVLVKVAETRKNRPAGAIPSPYKDGSSNNSERWHHQIKEVLASSQEALVVTERKYLKSDWCKTQPLRQTVSEEGCRSRTILNRFCYGQCNSFYIPRHVKKEEDSFQSCAFCKPQRVTSVIVELECPGLDPPFRIKKIQKVKHCRCMSVNLSDSDKQ
partner: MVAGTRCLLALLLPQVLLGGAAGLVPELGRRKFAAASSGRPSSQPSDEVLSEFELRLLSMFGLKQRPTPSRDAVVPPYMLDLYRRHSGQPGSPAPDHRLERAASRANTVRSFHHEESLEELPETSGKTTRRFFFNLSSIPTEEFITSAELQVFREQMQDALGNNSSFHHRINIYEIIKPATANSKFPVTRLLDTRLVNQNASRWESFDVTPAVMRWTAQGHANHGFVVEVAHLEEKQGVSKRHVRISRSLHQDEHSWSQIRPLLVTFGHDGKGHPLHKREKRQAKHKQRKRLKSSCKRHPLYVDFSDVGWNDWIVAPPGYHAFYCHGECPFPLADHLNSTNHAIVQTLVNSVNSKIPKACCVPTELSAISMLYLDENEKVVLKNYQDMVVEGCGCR
B2: Gremlin-2 (Mus musculus), O88273 (parent)
chain: B1 chain
partner: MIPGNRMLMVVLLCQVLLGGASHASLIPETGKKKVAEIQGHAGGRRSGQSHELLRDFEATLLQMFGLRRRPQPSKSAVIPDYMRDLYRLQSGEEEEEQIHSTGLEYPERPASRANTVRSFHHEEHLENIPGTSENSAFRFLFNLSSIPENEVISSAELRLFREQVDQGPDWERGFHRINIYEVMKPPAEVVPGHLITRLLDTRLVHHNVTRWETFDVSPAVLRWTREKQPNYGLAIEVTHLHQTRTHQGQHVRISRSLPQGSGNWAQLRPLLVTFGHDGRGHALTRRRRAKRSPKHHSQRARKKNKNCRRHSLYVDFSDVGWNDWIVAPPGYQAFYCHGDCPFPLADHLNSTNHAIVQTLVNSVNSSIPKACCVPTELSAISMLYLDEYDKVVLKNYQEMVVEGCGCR

Variants of: B1
Settings: with bmp2_human BMP2, P12643

Effect of a mutation on the interaction, decreasing interaction strength:
F104A
Y105A
F117A
Y98A
W72A

Variants of: B2
Settings: with bmp4_human BMP4, P12644

Effect of a mutation on the interaction, decreasing interaction strength:
W72A
F117A
F104A
Y98A
Y105A
